Test results reported in article PMC12720779.

Legend:
T2Q A34F variant of GB1 [1] = test: NMR titration; 19F NMR of 3-fluorotyrosine-labelled A34F, serial dilution 500 to 15.6 uM; dimer to monomers; 20 mM phosphate pH 7.0, 10% D2O, 298 K; with ficoll (70 kDa) as crowder
T2Q A34F variant of GB1 [2] = test: NMR titration; 19F NMR of 3-fluorotyrosine-labelled A34F, serial dilution 500 to 15.6 uM; dimer to monomers; 20 mM phosphate pH 7.0, 10% D2O, 298 K; with 100 g/L heparin (15 kDa) as crowder
T2Q A34F variant of GB1 [3] = test: NMR titration; 19F NMR of 3-fluorotyrosine-labelled A34F, serial dilution 500 to 15.6 uM; dimer to monomers; 20 mM phosphate pH 7.0, 10% D2O, 298 K; with hyaluronic acid (50 kDa) as crowder
T2Q A34F variant of GB1 [4] = test: NMR titration; 19F NMR of 3-fluorotyrosine-labelled A34F, serial dilution 500 to 15.6 uM; dimer to monomers; 20 mM phosphate pH 7.0, 10% D2O, 298 K; with 100 g/L mucin (porcine stomach) as crowder
T2Q A34F variant of GB1 [5] = test: NMR titration; 19F NMR of 3-fluorotyrosine-labelled A34F, serial dilution 500 to 15.6 uM, Y33 monomer and dimer peak integrals; dimer to monomers; 20 mM phosphate pH 7.0, 10% D2O, 298 K; buffer alone

Kd (T2Q A34F variant of GB1 [1]): 42 µM | Kd (T2Q A34F variant of GB1 [2]): 12 µM | Kd (T2Q A34F variant of GB1 [3]): 8 µM | Kd (T2Q A34F variant of GB1 [4]): 26 µM | Kd (T2Q A34F variant of GB1 [5]): 57 µM | stoichiometry N (T2Q A34F variant of GB1 [5]): 2
Substance: T2Q A34F variant of GB1 (domain or fragment)
